Starred links: 1 amine or outer side, 2 acyl side, 3 side chain; linkers in the order of their positions; H or OH if unused. Positions of bridges follow the written chain, without caps; N, C: chain ends. Non-standard residues stand in square brackets, D forms with d. Primed or numbered codes have the meaning given here. PyrS2(3) = (S)-3-amino-1-((pent-4-en-1-yloxy)carbonyl)pyrrolidine-3-carboxylic acid, stapling residue, C=CCCCOC(=O)N1CC[C@@](N[*:1])(C(=O)[*:2])C1; PyrS2″ = (S)-3-amino-1-((pent-4-en-1-yloxy)carbonyl)pyrrolidine-3-carboxylic acid (stapling residue), C=CCCCOC(=O)N1CC[C@@](N[*:1])(C(=O)[*:2])C1; B5(16) = 2-amino-2-(pent-4-en-1-yl)hept-6-enoic acid = 2,2-bis(4-pentenyl)glycine (stitching residue), C=CCCCC(CCCC=C)(N[*:1])C(=O)[*:2]; B5(32) = 2-amino-2-(pent-4-en-1-yl)hept-6-enoic acid (bis-4-pentenylglycine, two alkene side chains), C=CCCCC(CCCC=C)(N[*:1])C(=O)[*:2]; B5(4) = 2,2-bis(4-pentenyl)glycine = 2-amino-2-(pent-4-en-1-yl)hept-6-enoic acid (stitching residue), C=CCCCC(CCCC=C)(N[*:1])C(=O)[*:2]; B5(5) = 2,2-bis(4-pentenyl)glycine, 2-amino-2-(pent-4-en-1-yl)hept-6-enoic acid (stitching residue), C=CCCCC(CCCC=C)(N[*:1])C(=O)[*:2]; TfeGA = (S)-2-amino-3-((carboxymethyl)(2,2,2-trifluoroethyl)amino)propanoic acid, O=C([C@H](CN(CC(=O)[*:3])CC(F)(F)F)N[*:1])[*:2]; PyrS2 = (S)-3-amino-1-((pent-4-en-1-yloxy)carbonyl)pyrrolidine-3-carboxylic acid, C=CCCCOC(=O)N1CC[C@@](N[*:1])(C(=O)[*:2])C1; B5″ = 2,2-bis(4-pentenyl)glycine, stitching residue, C=CCCCC(CCCC=C)(N[*:1])C(=O)[*:2]; Phe(3-COOH) = N[C@@H](Cc1cccc(C(=O)O)c1)C(=O)O; 2F3MeF = Cc1cccc(C[C@H](N[*:1])C(=O)[*:2])c1F; Phe(2-CF3) = N[C@@H](Cc1ccccc1C(F)(F)F)C(=O)O; Phe(2-Cl) = N[C@@H](Cc1ccccc1Cl)C(=O)O; Met(O2) = CS(=O)(=O)CC[C@H](N)C(=O)O; Bta = N[C@@H](Cc1csc2ccccc12)C(=O)O; αAllylPro = C=CC[C@@]1(C(=O)O)CCCN1; tBuAla = CC(C)(C)C[C@H](N)C(=O)O; 3Thi = N[C@@H](Cc1ccsc1)C(=O)O; PyrS2(4) = not defined here

What all share (assay): cell-based or functional assay
In test [1] the target is T1, beta-catenin in DLD1 TCF/LEF luciferase reporter cells (UniProt P35222 1-781).
T1 sequence (looked up): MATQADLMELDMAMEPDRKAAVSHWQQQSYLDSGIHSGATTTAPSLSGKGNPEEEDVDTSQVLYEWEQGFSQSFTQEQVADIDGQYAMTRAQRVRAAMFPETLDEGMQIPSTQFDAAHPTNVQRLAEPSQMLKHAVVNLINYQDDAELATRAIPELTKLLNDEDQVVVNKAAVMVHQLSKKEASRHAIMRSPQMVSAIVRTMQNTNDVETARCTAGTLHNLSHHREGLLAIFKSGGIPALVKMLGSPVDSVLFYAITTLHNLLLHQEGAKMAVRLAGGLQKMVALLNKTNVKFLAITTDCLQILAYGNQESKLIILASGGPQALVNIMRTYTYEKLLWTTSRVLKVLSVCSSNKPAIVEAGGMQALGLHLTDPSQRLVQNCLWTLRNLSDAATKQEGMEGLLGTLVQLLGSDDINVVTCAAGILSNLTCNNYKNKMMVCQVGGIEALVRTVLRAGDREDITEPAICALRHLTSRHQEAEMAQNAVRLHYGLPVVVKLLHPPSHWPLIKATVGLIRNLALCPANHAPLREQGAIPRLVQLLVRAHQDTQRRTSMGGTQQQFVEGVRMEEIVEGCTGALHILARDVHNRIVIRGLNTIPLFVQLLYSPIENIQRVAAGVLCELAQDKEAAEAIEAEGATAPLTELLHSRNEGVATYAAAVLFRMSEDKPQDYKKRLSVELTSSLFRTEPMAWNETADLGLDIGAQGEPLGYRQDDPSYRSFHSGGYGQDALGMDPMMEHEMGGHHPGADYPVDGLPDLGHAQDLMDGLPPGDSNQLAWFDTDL

The next test has as its target T2, Bcat-Halo (UniProt P35222 1-781).
T2 sequence (looked up): T1 sequence (looked up)

For test [2], the target named is T3, beta-catenin in DLD1 TCF/LEF luciferase reporter cells (UniProt P35222 2-781).
T3 sequence (looked up): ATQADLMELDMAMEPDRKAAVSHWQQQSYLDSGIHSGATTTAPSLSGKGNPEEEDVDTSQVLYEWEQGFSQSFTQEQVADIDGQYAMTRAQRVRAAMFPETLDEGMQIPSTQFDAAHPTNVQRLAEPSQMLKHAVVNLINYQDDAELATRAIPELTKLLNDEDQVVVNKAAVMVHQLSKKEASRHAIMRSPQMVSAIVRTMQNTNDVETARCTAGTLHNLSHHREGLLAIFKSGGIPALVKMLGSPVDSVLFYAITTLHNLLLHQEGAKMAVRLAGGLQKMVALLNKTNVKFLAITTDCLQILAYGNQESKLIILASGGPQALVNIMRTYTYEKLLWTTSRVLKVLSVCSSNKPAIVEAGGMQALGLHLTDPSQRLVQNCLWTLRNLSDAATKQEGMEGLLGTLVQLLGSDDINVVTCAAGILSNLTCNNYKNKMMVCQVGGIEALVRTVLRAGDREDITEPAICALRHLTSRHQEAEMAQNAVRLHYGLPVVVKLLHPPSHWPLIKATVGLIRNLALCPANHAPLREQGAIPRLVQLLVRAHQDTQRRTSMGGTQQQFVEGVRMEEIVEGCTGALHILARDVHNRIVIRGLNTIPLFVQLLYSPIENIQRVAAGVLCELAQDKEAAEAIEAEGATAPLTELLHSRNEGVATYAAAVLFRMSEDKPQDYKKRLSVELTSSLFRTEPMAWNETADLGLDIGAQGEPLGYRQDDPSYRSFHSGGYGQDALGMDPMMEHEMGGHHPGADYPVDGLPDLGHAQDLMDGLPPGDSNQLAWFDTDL

Test [3] concerns the target T4, B-cat-Halo (UniProt P35222 1-781).
T4 sequence (looked up): T1 sequence (looked up)

Test [4] deals with T5, B-cat-Halo (beta-catenin HaloTag construct expressed in HEK293 cells) (UniProt P35222 1-781).
T5 sequence (looked up): T1 sequence (looked up)

In test [5] the target is T6, beta-catenin in DLD1 TCF/LEF luciferase reporter cells (UniProt P35222 1-781).
T6 sequence (looked up): T1 sequence (looked up)
The source holds these as a separate data set.

For test [6], the target named is T7, B-cat-Halo (beta-catenin HaloTag construct expressed in HEK293 cells) (UniProt P35222 1-781).
T7 sequence (looked up): T1 sequence (looked up)
The source holds these as a separate data set.

The target in test [7] is T8, beta-catenin in DLD1 TCF/LEF luciferase reporter cells (UniProt P35222 2-781).
T8 sequence (looked up): T3 sequence (looked up)
The source holds these as a separate data set.

Test [8] deals with T9, B-cat-Halo (UniProt P35222 1-781).
T9 sequence (looked up): T1 sequence (looked up)
This is another data set of the same source.

Test [9] has as its target T10, beta-catenin in DLD1 TCF/LEF luciferase reporter cells (UniProt P35222 1-781).
T10 sequence (looked up): T1 sequence (looked up)
This is another data set of the same source.

B1: I-1684 (peptide)
peptide: Ac-[αAllylPro]D[tBuAla][B5(16)]D[Phe(3-COOH)]GAFL[PyrS2(4)][Phe(2-Cl)][Bta]Q-NH2
modifications: staple 1-4, 4-11; not fully specified; printed as Ac-PL3-Asp-Npg-B5-Asp-3COOHF-Gly-Ala-Phe-Leu-PyrS2-2C1F-BztA-Gln-NH2; reading uncertain
With B1, the “DLD1 4% Abs IC50” value in test [1] turned out to be 3.4 µM.

On to Ac-[αAllylPro]D[tBuAla][B5(4)]D[Phe(3-COOH)][(AcPpz)GlnR]AFL[PyrS2″][2F3MeF][Bta]A-NH2 (staple 1-4, 4-11) [I-2319], for which the “NanoBRET Abs IC50” value with Bcat-Halo is 1 µM. The “DLD1 4% Abs IC50” value in test [2] was 1.7 µM.

For Ac-[αAllylPro]D[tBuAla][B5″]D[TfeGA]AAFN[PyrS2(3)][3Thi][Bta]Q-NH2 (staple 1-4, 4-11) [I-761], the “NanoBRET IC50” value with B-cat-Halo [3] is 5 µM.

B2: I-2520 (peptide)
peptide: Ac-[αAllylPro]D[tBuAla][B5(4)]DXQAFL[PyrS2][Phe(2-CF3)][Bta]A-NH2
modifications: staple 1-4, 4-11; not fully specified (residue 6); printed as Ac-PL3-Asp-Npg-B5-Asp-[CH2CChCO2H]TriAzDap-Gln-Ala-Phe-Leu-PyrS2-2F3MeF-BztA-Ala-NH2
With B2, the “NanoBRET Abs IC50 (uM); Bcat-Halo / TCF4-Luc in HEK293 cells” value in [4] worked out at 5.9 µM. For the same molecule, the “DLD1 4% Abs IC50 (uM); TCF/LEF luciferase reporter assay” value in [5] amounted to 5.7 µM.

B3: I-2521 (peptide)
peptide: Ac-[αAllylPro]D[tBuAla][B5(4)]DXAAFL[PyrS2][Phe(2-CF3)][Bta]S-NH2
modifications: staple 1-4, 4-11; not fully specified (residue 6); printed as Ac-PL3-Asp-Npg-B5-Asp-[CH2CChCO2H]TriAzDap-Ala-Ala-Phe-Leu-PyrS2-2F3MeF-BztA-Ser-NH2
B3: the “NanoBRET Abs IC50 (uM); Bcat-Halo / TCF4-Luc in HEK293 cells” value in test [4] worked out at 5.6 µM. The “DLD1 4% Abs IC50 (uM); TCF/LEF luciferase reporter assay” value in test [5] came to 3 µM.

B4: I-2061 (peptide)
peptide: Ac-[αAllylPro]D[tBuAla][B5(4)]D[Phe(3-COOH)]AAFL[PyrS2(4)][3Thi][Bta][Met(O2)]-NH2
modifications: staple 1-4, 4-11; reading uncertain; also: printed as Ac-PL3-Asp-Npg-B5-Asp-3COOHF-Ala-Ala-Phe-Leu-PyrS2-3Thi-BztA-Met2O-NH2
On to B4, for which, in [6], the “NanoBRET Abs IC50” value amounted to 1.9 µM. In addition, the “DLD1 4% Abs IC50” value in [7] was 1.8 µM.

As to Ac-[αAllylPro]D[tBuAla][B5(4)]D[Phe(3-COOH)]AAFL[PyrS2][3Thi][Bta]NLLLLL-NH2 (staple 1-4, 4-11; also: later eluting staple isomer) [I-2280], the “NanoBRET Abs IC50” value with B-cat-Halo [8] is more than 20 µM. Moreover, in test [9], the “DLD1 4% Abs IC50” value was more than 20 µM.

Turning to Ac-[αAllylPro]D[tBuAla][B5(4)]D[Phe(3-COOH)]QAFL[PyrS2″][2F3MeF][Bta]A-NH2 (staple 1-4, 4-11) [I-2057], in test [6], the “NanoBRET Abs IC50” value stood at 1.5 µM. In addition, the “DLD1 4% Abs IC50” value in test [7] turned out to be 4 µM.

In the case of Ac-[αAllylPro]D[tBuAla][B5(5)]DDAAFN[PyrS2″][3Thi][Bta]Q-NH2 (staple 1-4, 4-11) [I-686], the “NanoBRET IC50” value with B-cat-Halo [3] amounted to 7.5 µM.

As to Ac-[αAllylPro]D[tBuAla][B5(32)]D[Phe(3-COOH)]AAFL[PyrS2][3Thi][Bta]NLLL-NH2 (staple 1-4, 4-11; also: later eluting staple isomer (HPLC peak)) [I-2276], the “NanoBRET Abs IC50” value with B-cat-Halo [8] is 4 µM. The “DLD1 4% Abs IC50” value in test [9] was 3.9 µM.

For the origin of these results see US20240116985A1 (published 2024).
